Laboratory results taken from patent US20130189787A1 (OPX BIOTECHNOLOGIES ,INC., priority 2008, published 2013).

Legend:
E. coli = settings: known to be toxic; cited from earlier work
[1] = tested on: gram negative and gram positive bacteria; settings: wide range of gram negative and gram positive bacteria; concentrations as low as; cited from earlier work
E. coli strain BW25113 = settings: 20 g/L 3-HP, putrescine 0.1 g/L
Description: The control E. coli strain BW25113 and 22 of its derivatives, each derivative having a deletion of a respective one of 22 aldehyde dehydrogenases or related genes (predicted aldehyde dehydrogenases via homology, www.ecocyc.org) were cultured as described in methods in the Common Methods Section. […] These strains each contain a kanamycin marker in place of the deleted gene.
In addition, an Eppendorf external column heater is used and the data are collected using an SRI (Torrance, Calif.) analog-to-digital converter linked to a standard desk top computer. Data are analyzed using the SRI Peak Simple software. A Coregel 64H ion exclusion column (Transgenomic, Inc., San Jose, Calif.) is employed. The column resin is a sulfonated polystyrene divinyl benzene with a particle size of 10 μm and column dimensions are 300×7.8 mm The mobile phase consisted of sulfuric acid (Fisher Scientific, Pittsburgh, Pa. USA) diluted with deionized (18 MΩcm) water to a concentration of 0.02 N and vacuum filtered through a 0.2 μm nylon filter. The flow rate of the mobile phase is 0.6 mL/min. The UV detector is operated at a wavelength of 210 nm and the column is heated to 60° C.
The next day, 250 uL of the overnight cultures were inoculated into 25 mL of M9+kanamycin. […] All the intracellular and extracellular metabolites were analyzed by HPLC as described in the Common Methods Section, Subsection III.

[2] = Enzyme activity assays for dehydrogenase enzymes with 3-HP as a substrate (340 nm spectrophotometric); format: biochemical, E. coli; settings: 1 mM 3-HP, 1 mM cofactor, 1 hour at room temperature, change in absorption at 340 nm; clarified lysates or purified enzymes
Description: Samples of these enzymes were isolated either as clarified lysates or as purified enzymes as described in the method reported above. As these dehydrogenases use NAD+, NADH, NADP+, NADPH or all of these molecules as cofactors for their reactions depending on reaction direction, all enzymes where tested with their known cofactors. For enzymes where the specific cofactors have not been determined or maybe unclear, all possible cofactors were evaluated.
(§1) A spectrophotometric assay was used to evaluate enzyme activity. […] Replicates of reactions were carried out to compare reactions in the presence or absence or 3-HP, and with and without enzyme. Enzymatic activities were confirmed by comparing the change in the 340 nm absorption values after 1 hour incubations to reactions performed in buffer containing 1 mM cofactor as a baseline. […] Furthermore, activity of the purified aldB enzyme was confirmed with its natural substrate (1 mM […]) as in FIG. 9B.
(§2) Reactions were carried out using one of two reaction buffers. AldA, AldB, LacZ, and Usg reactions were performed in a buffer consisting of 100 mM potassium phosphate buffer pH 7.4 with 50 mM sodium chloride. Likewise, puuC reactions were performed in a buffer consisting of 200 mM sodium bicarbonate pH 9.2 with 10 mM dithiothreitol and 30 micromolar ferrous sulphate. Where stated, all cofactors were used at 1 mM in the final reaction buffer. […] After one hour incubations at room temperature, the samples were diluted 1 to 20 in water and measured with a Beckmann DU530 spectrometer set at 340 nm.

[3] = Enzyme activity assay of purified aldB with its natural substrate; format: biochemical, E. coli; settings: 1 mM acetate, FIG. 9B
Description: as §1, §2

**Q.** Which “toxicity to E. coli” value (E. coli) does the source give for `O=CCCO` [3-HPA, 3-hydroxypropionaldehyde] here?
**A.** toxic

**Q.** And the “concentration toxic to bacteria” value [1]?
**A.** ≥ 15 mM

**Q.** With `NCCCCN` [putrescine] as the molecule, how does the “level of aldehyde in response to 3-HP” value (E. coli strain BW25113; 20 hours, FIG. 7) read?
**A.** greater level

**Q.** What about the “level of aldehyde in response to 3-HP in a strain lacking the puuC gene” value (E. coli strain BW25113; puuC deletion strain, FIG. 8) of the same molecule?
**A.** elevated levels

B1: aldA: E. coli aldehyde dehydrogenase A, his-tagged, over-expressed (SEQ ID NO 023) (protein, listed as Escherichia coli)
chain: MSVPVQHPMYIDGQFVTWRGDAWIDVVNPATEAVISRIPDGQAEDARKAIDAAERAQPEWEALPAIERASWLRKISAGIRERASEISALIVEEGGKIQQLAEVEVAFTADYIDYMAEWARRYEGEIIQSDRPGENILLFKRALGVTTGILPWNFPFFLIARKMAPALLTGNTIVIKPSEFTPNNAIAFAKIVDEIGLPRGVFNLVLGRGETVGQELAGNPKVAMVSMTGSVSAGEKIMATAAKNITKVCLELGGKAPAIVMDDADLELAVKAIVDSRVINSGQVCNCAERVYVQKGIYDQFVNRLGEAMQAVQFGNPAERNDIAMGPLINAAALERVEQKVARAVEEGARVAFGGKAVEGKGYYYPPTLLLDVRQEMSIMHEETFGPVLPVVAFDTLEDAISMANDSDYGLTSSIYTQNLNVAMKAIKGLKFGETYINRENFEAMQGFHAGWRKSGIGGADGKHGLHEYLQTQVVYLQS
modifications: His tag
**Q.** For B1, which “enzymatic activity using 3-HP as a substrate” value (shortened to “enzymatic activity using 3-HP”) [2] is on record?
**A.** showed activity

B2: puuC: E. coli γ-glutamyl-γ-aminobutyraldehyde dehydrogenase, over-expressed (SEQ ID NO 038) (protein, listed as Escherichia coli)
chain: MNFHHLAYWQDKALSLAIENRLFINGEYTAAAENETFETVDPVTQAPLAKIARGKSVDIDRAMSAARGVFERGDWSLSSPAKRKAVLNKLADLMEAHAEELALLETLDTGKPIRHSLRDDIPGAARAIRWYAEAIDKVYGEVATTSSHELAMIVREPVGVIAAIVPWNFPLLLTCWKLGPALAAGNSVILKPSEKSPLSAIRLAGLAKEAGLPDGVLNVVTGFGHEAGQALSRHNDIDAIAFTGSTRTGKQLLKDAGDSNMKRVWLEAGGKSANIVFADCPDLQQAASATAAGIFYNQGQVCIAGTRLLLEESIADEFLALLKQQAQNWQPGHPLDPATTMGTLIDCAHADSVHSFIREGESKGQLLLDGRNAGLAAAIGPTIFVDVDPNASLSREEIFGPVLVVTRFTSEEQALQLANDSQYGLGAAVWTRDLSRAHRMSRRLKAGSVFVNNYNDGDMTVPFGGYKQSGNGRDKSLHALEKFTELKTIWISLEA
**Q.** With B2 as the molecule, how does the “enzymatic activity using 3-HP” value [2] read?
**A.** showed activity

B3: usg: E. coli aldehyde dehydrogenase not listed in Table 1 (SEQ ID NO: 121) (protein, listed as Escherichia coli)
chain: MSEGWNIAVLGATGAVGEALLETLAERQFPVGEIYALARNESAGEQLRFGGKTITVQDAAEFDWTQAQLAFFVAGKEATAAWVEEATNSGCLVIDSSGLFALEPDVPLVVPEVNPFVLTDYRNRNVIAVPDSLTSQLLAALKPLIDQGGLSRISVTSLISASAQGKKAVDALAGQSAKLLNGIPIDEEDFFGRQLAFNMLPLLPDSEGSVREERRIVDEVRKILQDEGLMISASVVQAPVFYGHAQMVNFEALRPLAAEEARDAFVQGEDIVLSEENEFPTQVGDASGTPHLSVGCVRNDYGMPEQVQFWSVADNVRFGGALMAVKIAEKLVQEYLY
**Q.** With B3 as the molecule, how does the “enzymatic activity using 3-HP” value [2] read?
**A.** showed activity

B4: aldB: E. coli acetaldehyde dehydrogenase, his-tagged, over-expressed (SEQ ID NO 024) (protein, listed as Escherichia coli)
chain: MTNNPPSAQIKPGEYGFPLKLKARYDNFIGGEWVAPADGEYYQNLTPVTGQLLCEVASSGKRDIDLALDAAHKVKDKWAHTSVQDRAAILFKIADRMEQNLELLATAETWDNGKPIRETSAADVPLAIDHFRYFASCIRAQEGGISEVDSETVAYHFHEPLGVVGQIIPWNFPLLMASWKMAPALAAGNCVVLKPARLTPLSVLLLMEIVGDLLPPGVVNVVNGAGGVIGEYLATSKRIAKVAFTGSTEVGQQIMQYATQNIIPVTLELGGKSPNIFFADVMDEEDAFFDKALEGFALFAFNQGEVCTCPSRALVQESIYERFMERAIRRVESIRSGNPLDSVTQMGAQVSHGQLETILNYIDIGKKEGADVLTGGRRKLLEGELKDGYYLEPTILFGQNNMRVFQEEIFGPVLAVTTFKTMEEALELANDTQYGLGAGVWSRNGNLAYKMGRGIQAGRVWTNCYHAYPAHAAFGGYKQSGIGRETHKMMLEHYQQTKCLLVSYSDKPLGLF
modifications: His tag
**Q.** With B4 as the molecule, how does the “enzymatic activity with natural substrate” value [3] read?
**A.** confirmed

**Q.** What about the “enzymatic activity using 3-HP” value [2] of the same molecule?
**A.** showed activity
